The labels stand for the following.
B1: antigenic peptide ERBB2-1B (RLLEETDLV) (peptide)
peptide: RLLEETDLV
B2: reference human peptide derived from STEAP, STEAP-H (MIAVFLPIV) (peptide)
peptide: MIAVFLPIV
B3: antigenic peptide STEAP-B1 (MLAVFLPLV) (peptide)
peptide: MLAVFLPLV
B4: reference human peptide derived from MAGE C1, MAGE C1H (KVVEFLAML) (peptide)
peptide: KVVEFLAML
B5: antigenic peptide MMP2-B (SLPPDVQQV) (peptide)
peptide: SLPPDVQQV
B6: antigenic peptide ERBB2-3B4 (ILLGVVFGI) (peptide)
peptide: ILLGVVFGI
B7: antigenic peptide ERBB2-3B1 (VMLGVVFGV) (peptide)
peptide: VMLGVVFGV
B8: antigenic peptide ERBB2-3B3 (VMLGVVFGI) (peptide)
peptide: VMLGVVFGI
B9: antigenic peptide PMEL-B (ITSDVPFSV) (peptide)
peptide: ITSDVPFSV
B10: antigenic peptide STEAP-B2 (YLAVFLPIV) (peptide)
peptide: YLAVFLPIV
B11: reference human peptide derived from MMP2, MMP2-H (GLPPDVQRV) (peptide)
peptide: GLPPDVQRV
B12: antigenic peptide MAGE C1B (KLVEWLAML) (peptide)
peptide: KLVEWLAML

One assay addresses T1, HLA-A*0201 molecule expressed on the human tumoral cell T2 (human).
T1 construct: Empty or peptide-receptive class I molecule on T2 cells; surface level read with anti-HLA-A2 antibody BB7.2-PE after incubation with the peptide; also called HLA-A2
The assay is described as follows: T2 cell HLA-A2 FACS (BB7.2-PE), peptide 10 µM. On the procedure:
(§1) T2 cells (2·10⁵ cells per well) are incubated with decreasing concentrations of peptides from 100 μM to 0.1 μM in a AIMV medium supplemented with 100 ng/μl of human β2m at 37° C. for 16 hours. Cells are then washed two times and marked with the anti-HLA-A2 antibody coupled to PE (clone BB7.2, BD Pharmagen).
(§2) The relative affinity is then determined as follows: […]
As to B1, the “HLA-A2 labelling as % of reference peptide HIV pol 589-597 at 100 µM” value (“HLA-A2 labelling as %” below) amounted to 26.4%.

Consider B2, for which the “HLA-A2 labelling as %” value was determined as 14.9%.

Take B3: the “HLA-A2 labelling as %” value was determined as 45.1%.

With B4, the “HLA-A2 labelling as %” value came to 7.84%.

In the case of B5, the “HLA-A2 labelling as %” value worked out at 96%.

In the case of B6, the “HLA-A2 labelling as %” value worked out at 138%.

Consider B7, for which the “HLA-A2 labelling as %” value was 26.7%.

In the case of B8, the “HLA-A2 labelling as %” value was determined as 16.6%.

B9: the “HLA-A2 labelling as %” value is 7.93%.

As to B10, the “HLA-A2 labelling as %” value stood at 27.7%.

Turning to B11, the “HLA-A2 labelling as %” value turned out to be 66.3%.

B12: the “HLA-A2 labelling as %” value stood at 21.4%.

The target of a further assay is T1, HLA-A*0201 molecule expressed on the …. In words: T2 cell HLA-A2 FACS (BB7.2-PE), peptide 0.1 µM. Here is the method:
as §1, §2
For B1, the “HLA-A2 labelling as %” value is -1.18%.

B2: the “HLA-A2 labelling as %” value came to 0.11%.

Turning to B3, the “HLA-A2 labelling as %” value was found to be 6.67%.

In the case of B4, the “HLA-A2 labelling as %” value worked out at 5.77%.

As for B5, the “HLA-A2 labelling as %” value was found to be 4.69%.

Turning to B6, the “HLA-A2 labelling as %” value is -11.6%.

Regarding B7, the “HLA-A2 labelling as %” value is -16%.

On to B8, for which the “HLA-A2 labelling as %” value was -16.3%.

On to B9, for which the “HLA-A2 labelling as %” value amounted to 4.69%.

In the case of B10, the “HLA-A2 labelling as %” value was -0.34%.

For B11, the “HLA-A2 labelling as %” value stood at 5.41%.

In the case of B12, the “HLA-A2 labelling as %” value came out at 2.45%.

For another assay the target is unchanged. In words: T2 cell HLA-A2 FACS (BB7.2-PE), peptide 1 µM. On the procedure: as §1, §2
On to B1, for which the “HLA-A2 labelling as %” value was determined as 2.86%.

As to B2, the “HLA-A2 labelling as %” value is -4.47%.

With B3, the “HLA-A2 labelling as %” value is 8.92%.

With B4, the “HLA-A2 labelling as %” value is 7.12%.

Take B5: the “HLA-A2 labelling as %” value came out at 24.6%.

Take B6: the “HLA-A2 labelling as %” value came to 26.1%.

As for B7, the “HLA-A2 labelling as %” value was -12.9%.

Take B8: the “HLA-A2 labelling as %” value is -10.6%.

In the case of B9, the “HLA-A2 labelling as %” value was determined as 3.62%.

For B10, the “HLA-A2 labelling as %” value was determined as 4.87%.

For B11, the “HLA-A2 labelling as %” value was 17.8%.

Consider B12, for which the “HLA-A2 labelling as %” value was 3.97%.

For a further assay the target is unchanged. The assay is described as follows: T2 cell HLA-A2 FACS (BB7.2-PE), peptide 100 µM. On the procedure: as §1, §2
B1: the “HLA-A2 labelling as %” value was 297%.

For the molecule B2, the “HLA-A2 labelling as %” value stood at 102%.

As for B3, the “HLA-A2 labelling as %” value worked out at 132%.

On to B4, for which the “HLA-A2 labelling as %” value worked out at 32.3%.

Turning to B5, the “HLA-A2 labelling as %” value came to 131%.

Regarding B6, the “HLA-A2 labelling as %” value was found to be 265%.

As for B7, the “HLA-A2 labelling as %” value came to 122%.

As for B8, the “HLA-A2 labelling as %” value is 179%.

Regarding B9, the “HLA-A2 labelling as %” value came out at 74.8%.

Take B10: the “HLA-A2 labelling as %” value is 97.9%.

As for B11, the “HLA-A2 labelling as %” value was determined as 154%.

As to B12, the “HLA-A2 labelling as %” value worked out at 109%.

For a further assay the target is unchanged. In words: T2 cell HLA-A2 FACS (BB7.2-PE), peptide titration. Here is the method:
as §1, §2
Regarding B1, the “Conc. inducing 20% of HLA-A2 expression” value came out at 9.5 µM.

As for B2, the “Conc. inducing 20% of HLA-A2 expression” value came out at 33.5 µM.

Take B3: the “Conc. inducing 20% of HLA-A2 expression” value was 5 µM.

For the molecule B4, the “Conc. inducing 20% of HLA-A2 expression” value amounted to 60.1 µM.

For B5, the “Conc. inducing 20% of HLA-A2 expression” value is 0.88 µM.

As for B6, the “Conc. inducing 20% of HLA-A2 expression” value worked out at 0.9 µM.

Consider B7, for which the “Conc. inducing 20% of HLA-A2 expression” value is 9 µM.

As to B8, the “Conc. inducing 20% of HLA-A2 expression” value came out at 12.5 µM.

Consider B9, for which the “Conc. inducing 20% of HLA-A2 expression” value worked out at 18.2 µM.

B10: the “Conc. inducing 20% of HLA-A2 expression” value stood at 8.22 µM.

Consider B11, for which the “Conc. inducing 20% of HLA-A2 expression” value worked out at 1.76 µM.

Regarding B12, the “Conc. inducing 20% of HLA-A2 expression” value was determined as 30.9 µM.

The target is the same in another assay. The assay is described as follows: T2 cell HLA-A2 FACS (BB7.2-PE); ratio of 20% concentrations against HIV pol 589-597. On the procedure:
as §1, §2
B1: the Relative affinity was determined as 0.26.

B2: the Relative affinity came out at 1.08.

With B3, the Relative affinity turned out to be 0.16.

Consider B4, for which the Relative affinity was 1.94.

B5: the Relative affinity was found to be 0.03.

In the case of B6, the Relative affinity was found to be 0.03.

In the case of B7, the Relative affinity came to 0.25.

In the case of B8, the Relative affinity worked out at 0.35.

Take B9: the Relative affinity was determined as 0.59.

On to B10, for which the Relative affinity was 0.27.

For B11, the Relative affinity stood at 0.06.

With B12, the Relative affinity came to 0.31.

Source of the values: US20230201322A1 (ENTEROME S A, published 2023).
